# No end group written: not given here.
# How the values were obtained:
# [1] = Solubility of the peptides in the test medium; format: physicochemical
# Procedure: (§1) The synthetic peptides that are potentially inhibitors of TGFβ1 activity, selected as indicated above in the section: selection of the peptides to be synthesized (both those derived from proteins that bind to TGFβ1 itself) were tested using the MV-1-Lu cell line. The selected peptides are soluble in buffered RPMI medium. The peptides were dissolved in buffered RPMI medium, free from foetal calf serum, and the following was used.
# The effect of the concentration of peptide P12 on inhibition of the activity of TGFβ1 was investigated.
# The effect of the concentration of peptide P54 on inhibition of the activity of TGFβ1 was investigated.
# TGFβ1 cell receptors = tested on: TGFβ1 cell receptors; set-up: species or system human; details: inhibition of binding of TGFβ1 to its cell receptors, MV-1-Lu cells; peptide concentration 420 μg/ml
# From the text: An immunofluorescence kit was used for this (Fluorokine rh TGFβ-biotin, R&D Systems Europe Ltd., Abingdon, UK). This test is based on the capacity of biotinylated TGFβ1 to bind to the cell receptors, in a specific manner, and the subsequent interaction of the biotin with fluorescein-labelled avidin, so that the signal intensity will depend on the quantity of TGFβ1 bound to the cell receptors.
# The MV-1-Lu cells grown in 162 cm^2 flasks were removed using solution 1 (described previously) and were resuspended in physiological saline for centrifugation at 500×g for 5 minutes. After centrifugation, the cells were resuspended again in physiological saline at a concentration of 4×10^6 cells/ml. 25 μl of the cell suspension was added to 12×75 mm borosilicate tubes, to which was added the peptide to be tested in 40 μl of RPMI 1640 medium, giving a final concentration of 0.42 μg/μl and 10 μl of biotinylated TGFβ1. […]
# At the end of the incubation period, 10 μl of fluorescein-labelled avidin was added, incubating for 30 minutes at 4° C. in darkness, after which 2 ml of a washing solution (RDF1) was added, followed by centrifugation at 500×g for 6 minutes. […] This method permits measurement of the fluorescence emitted by each cell when a laser beam is incident upon it, by means of a computer program (Lisys™ II, Becton Dickinson Immunocytometry Systems, California, USA).
# Once the fields had been delimited, the percentage of cells located in each of them was calculated. […]
# Peptides derived from previous syntheses, both those that were synthesized from the sequence of TGFβ1 and those from the type III receptor, were used for measuring, by flow cytometry, their capacity to inhibit the binding of TGFβ1 to the cell receptors. In these tests the cells are incubated with the peptide before adding TGFβ1-biotin, which will be detected using avidin-FITC (Material and Methods). Then the fluorescence emitted by the avidin-FITC is measured: this will be directly proportional to the quantity of TGFβ1 bound to the cells and inversely proportional to the activity of the peptide.
# TGFβ1 = target: T1, TGFβ1 (Homo sapiens, UniProt P01137); format: cell-based; details: TGFβ1 200 pg/ml; for Bioassay (% inhibition): inhibition of TGFβ1 activity, growth of MV-1-Lu cells, peptide concentration 200 μg/ml; for inhibitory activity of TGFβ1 (in words): peptide 200 μg/ml, MV-1-Lu cells
# T1 construct: the mature TGFβ1 is released by another cut; purchased R&D Systems Europe Ltd., Abingdon, UK
# T1 sequence (P01137 279-390): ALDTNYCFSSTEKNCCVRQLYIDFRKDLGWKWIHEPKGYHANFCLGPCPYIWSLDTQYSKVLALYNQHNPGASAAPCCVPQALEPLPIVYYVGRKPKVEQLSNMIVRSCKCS
# Procedure: A line derived from mink pulmonary epithelium, MV-1-Lu, was used (CCL-64, American Type Cell Culture, Virginia, USA). The cells were grown in 162 cm^2 culture flasks (Costar Corporation, Cambridge, USA) in a stove at 37° C. and 5% CO2, until subconfluence was attained. A complete medium was used: RPMI 1640 with L-glutamine (GibcoBRL, Life Technologies Ltd., Paisley, Scotland) supplemented with 5% of foetal calf serum (FCS, Biological Industries, Kibbutz Beit Haemek, Israel), 10 mM HEPES (1M HEPES Buffer, Bio-Whittaker, Verviers, Belgium) and antibiotics (100 U/ml penicillin and 100 μ/ml streptomycin).
# The MV-1-Lu cells grown as indicated above were removed from the bottom of the culture flasks using 5 ml of trypsin-EDTA (Biological Industries, Kibbutz Beit Haemek, Israel), resuspended in complete medium and centrifuged at 1500 rev/min for 8 minutes. After centrifugation the cells were resuspended in complete medium to a concentration of 50,000 cells/ml. For conducting the test, 10 ml of the cell suspension were taken and dispensed in 96-well, flat-bottom culture plates (Costar Corporation, Cambridge, USA), adding 100 μl/well, and were incubated overnight at 37° C. and 5% CO2, which permits adhesion of the cells to the bottom of the wells. […] The final concentration of FCS in the well was 2.5%. After 24 hours of incubation, 1 μCi of tritiated thymidine was added per well (25 Ci/mmol [methyl-^3H]-thymidine, Amersham Life Science, Buckinghamshire, UK) with incubation for a further 12 hours (Grubeck-Loebenstein B. et al. (1989) J. Clin. Invest. 83:764-770; Brennan F M et al. (1990) Clin. Exp. Immunol. 81:278-285).
# At the end of the incubation periods the cells were removed from the bottom of the wells with trypsin-EDTA and were collected using a manual harvester (Titertek cell harvester, Skatron Instruments Inc., Sterling, USA) which ruptures the cells, collecting the DNA in nitrocellulose filters (Filter MAT 11731, Skatron Instruments Inc., Sterling, USA) where it is fixed. The filters were placed individually in 5 ml polypropylene tubes to which 4 ml of scintillation fluid was added (Biogreen-11, Reactivos Scharlau S. A., Barcelona, Spain). The activity of each tube was quantified for 90 seconds in a β LKB scintillation counter (Beta plate system, LKB, Uppsala, Sweden).
# TGFβ1 is a cytokine that is able to inhibit the growth in vitro of the MV-1-Lu cell line (Grubeck-Loebenstein B. et al. (1989) J. Clin. Invest. 83:764-770; Brennan F M et al. (1990) Clin. Exp. Immunol. 81:278-285), therefore this line was used for testing the blocking effect of peptides on TGFβ1. After different combinations of media, cells and thymidine, we studied the effect of different concentrations of TGFβ1 on incorporation of [methyl-^3H]thymidine by MV-1-Lu cells in culture, for determining the most suitable conditions for the test. […]
# as §1
# The peptides belonging to the sequence of the receptor, or complementary to the peaks of hydrophilicity of TGFβ1, were incubated for 30 minutes in the presence of this cytokine and were then combined with the cell culture. The peptides derived from the sequence of TGFβ1 were added to the cell culture prior to addition of TGFβ1, since they interact with the receptors of the cell surface. These incubations were effected in 100 μl of the same medium as was used for adding the cells. The active peptides permitted cell growth to a greater or lesser degree depending on its ability to inhibit TGFβ1.
Substance,Bioassay (% inhibition) (TGFβ1) [%],inhibitory activity of TGFβ1 (in words) (TGFβ1),solubility in the test medium [1],Cytometry (% inhibition) (TGFβ1 cell receptors) [%],dependence of the inhibitory activity on the peptide concentration (TGFβ1; dose-response test),"inhibitory activity of nominal concentrations of peptide, before and after filtration (TGFβ1; dose-response test, filtered vs unfiltered stock)"
TSLDATMIWTMM [P54],97,capable of inhibiting the activity of TGFβ1 almost completely,low solubility,82.3,inhibit the activity of TGFβ1 in a manner that depends on the dose used,no measurable inhibitory activity in the filtrate
CDIHVLKQDGFSVLFTKCD (cysteine pairing not given here) [P149],–,not found to be active,–,–,–,–
LYNQHNPGASAAPCC (cysteine pairing not given here) [P18],18.2,–,–,6.5,–,–

# Second part, led by results:
Bioassay (% inhibition) (TGFβ1) [%],inhibitory activity of TGFβ1 (in words) (TGFβ1),Substance,solubility in the test medium [1],Cytometry (% inhibition) (TGFβ1 cell receptors) [%],dependence of the inhibitory activity on the peptide concentration (TGFβ1; dose-response test),"inhibitory activity of nominal concentrations of peptide, before and after filtration (TGFβ1; dose-response test, filtered vs unfiltered stock)"
40,–,HANFCLGPCPYIWSL (cysteine pairing not given here) [P11],–,86,–,–
–,had also demonstrated activity,"SNPYSAFQVDIIVDI [P106, SerAsnProTyrSerAlaPheGlnValAspIleIleValAspIle]",–,–,–,–
–,not found to be active,"CysValAlaValTrpArgLysAsnAspGluAsnIleThrLeuGluThrValCys (CVAVWRKNDENITLETVC; Synthetic peptide from rat TGB beta 1 type III receptor, position 84-101) [P146]",–,–,–,–

# From patent US7528226B2, “TGFβ1-inhibitor peptides” (Rojecto de Biomedicina Cima S.L., priority 1998, dated 2009)
